{
  "source": "patent US9618524B2",
  "about": "“Method, composition, isolation and identification of a plaque particle and related biomarker” (Plaxgen Inc., priority 2012, dated 2017)",
  "molecules": {"B1": {"name": "Heparin cofactor 2 (protein)", "chain": "GSKGPLDQLEKGGETAQSADPQWEQLNNKNLSMPLLPADFHKENTVTNDWIPEGEEDDDYLDLEKIFSEDDDYIDIVDSLSVSPTDSDVSAGNILQLFHGKSRIQRLNILNAKFAFNLYRVLKDQVNTFDNIFIAPVGISTAMGMISLGLKGETHEQVHSILHFKDFVNASSKYEITTIHNLFRKLTHRLFRRNFGYTLRSVNDLYIQKQFPILLDFKTKVREYYFAEAQIADFSDPAFISKTNNHIMKLTKGLIKDALENIDPATQMMILNCIYFKGSWVNKFPVEMTHNHNFRLNEREVVKVSMMQTKGNFLAANDQELDCDILQLEYVGGISMLIVVPHKMSGMKTLEAQLTPRVVERWQKSMTNRTREVLLPKFKLEKNYNLVESLKLMGIRMLFDKNGNMAGISDQRIAIDLFKHQGTITVNEEGTQATTVTTVGFMPLSTQVRFTVDRPFLFLIYEHRTSCLLFMGRVANPSRS"}, "B2": {"name": "Complement factor I (protein)", "chain": "KVTYTSQEDLVEKKCLAKKYTHLSCDKVFCQPWQRCIEGTCVCKLPYQCPKNGTAVCATNRRSFPTYCQQKSLECLHPGTKFLNNGTCTAEGKFSVSLKHGNTDSEGIVEVKLVDQDKTMFICKSSWSMREANVACLDLGFQQGADTQRRFKLSDLSINSTECLHVHCRGLETSLAECTFTKRRTMGYQDFADVVCYTQKADSPMDDFFQCVNGKYISQMKACDGINDCGDQSDELCCKACQGKGFHCKSGVCIPSQYQCNGEVDCITGEDEVGCAGFASVTQEETEILTADMDAERRRIKSLLPKLSCGVKNRMHIRRKRIVGGKRAQLGDLPWQVAIKDASGITCGGIYIGGCWILTAAHCLRASKTHRYQIWTTVVDWIHPDLKRIVIEYVDRIIFHENYNAGTYQNDIALIEMKKDGNKKDCELPRSIPACVPWSPYLFQPNDTCIVSGWGREKDNERVFSLQWGEVKLISNCSKFYGNRFYEKEMECAGTYDGSIDACKGDSGGPLVCMDANNVTYVWGVVSWGENCGKPEFPGVYTKVANYFDWISYHVGRPFISQYNV"}, "B3": {"name": "Complement C1r subcomponent (protein)", "chain": "SIPIPQKLFGEVTSPLFPKPYPNNFETTTVITVPTGYRVKLVFQQFDLEPSEGCFYDYVKISADKKSLGRFCGQLGSPLGNPPGKKEFMSQGNKMLLTFHTDFSNEENGTIMFYKGFLAYYQAVDLDECASRSKSGEEDPQPQCQHLCHNYVGGYFCSCRPGYELQEDTHSCQAECSSELYTEASGYISSLEYPRSYPPDLRCNYSIRVERGLTLHLKFLEPFDIDDHQQVHCPYDQLQIYANGKNIGEFCGKQRPPDLDTSSNAVDLLFFTDESGDSRGWKLRYTTEIIKCPQPKTLDEFTIIQNLQPQYQFRDYFIATCKQGYQLIEGNQVLHSFTAVCQDDGTWHRAMPRCKIKDCGQPRNLPNGDFRYTTTMGVNTYKARIQYYCHEPYYKMQTRAGSRESEQGVYTCTAQGIWKNEQKGEKIPRCLPVCGKPVNPVEQRQRIIGGQKAKMGNFPWQVFTNIHGRGGGALLGDRWILTAAHTLYPKEHEAQSNASLDVFLGHTNVEELMKLGNHPIRRVSVHPDYRQDESYNFEGDIALLELENSVTLGPNLLPICLPDNDTFYDLGLMGYVSGFGVMEEKIAHDLRFVRLPVANPQACENWLRGKNRMDVFSQNMFCAGHPSLKQDACQGDSGGVFAVRDPNTDRWVATGIVSWGIGCSRGYGFYTKVLNYVDWIKKEMEEED"}},
  "experiment_in_all_cases": "Mass spectroscopy proteomics, semi-quantitative binding affinity of serum proteins (plaqueproteome, Table 2)",
  "settings_in_all_cases": "higher number = stronger affinity",
  "key": {"[1]": {"tested_on": "Tau plaque particles", "set-up": "species or system human", "description": "For Tau-74 (74-102) (Exon 3/Insert 2 domain) preparation, 1 mg of Tau-74 was suspended in 1 mL of PBS and the sample was incubated at 37° C. for 2 hrs. Similarly for preparing Tau-275 (275-305) (Repeat 2 domain) 1 mg of the peptide was suspended in 1 mL of PBS and the sample was incubated at 37° C. for 2 hrs. After incubation, all the samples were centrifuged for 5 min. at 5000 rpm to remove precipitate, if any, and the supernatant containing oligomers/aggregates were used for in vitro amyloid plaque particles formation assay. For detecting Tau plaque particles, Thioflavin S (Ex/Em=430 nm/550 nm) amyloid binding fluorescent dye (10 μg) was used in the assay.\nNext, to isolate Tau plaque particles, as performed for Abeta-42 and Abeta-28 plaque particles isolation, diluted serum samples were used for incubation separately with Tau-45, Tau-74 and Tau-275 oligomers/aggregates. Each assay was performed in 1 mL reaction (800 μL of 50% plasma or serum) and 200 μL (30 μg) of each Tau aggregates and the mixtures were incubated at 37° C. for 1 hr. To the each mixture Thioflavin S dye (120 μg) was added and the sample was incubated for additional 30 min at 37° C. After the incubation, each sample was directly used for sample acquisition using flow cytometer (FACS ARIA II, BD Biosciences, San Jose, Calif.). After initial detection of Tau plaque particles, gates were drawn in the acquisition blot to separately sort and isolate fluorescently labeled Tau plaque particles.\n(§1) For preparing trypsin digested peptide sequences, the isolated plaque particles were centrifuged at 10000 rpm for 5 min and the pellet containing plaque particles was resuspended in 100 μl PBS buffer. Stock solutions of digestion buffer (Ammonium Biocarbonate 50 mM), reducing buffer (DDT 100 mM) and alkylation buffer (lodoaceamide 100 mM) were prepared and stored at −20° C. for up to two months. For trypsin digestion, 100 μl of each plaque particles (2000 of Abeta-42, cholesterol, Tau and alpha-synuclein) were precipitated using cold acetone −80° C. by adding 4X's the volume. The samples were placed on dry ice for 10 min with intermittent vortex. Next, the samples were centrifuged at 4° C. at 10000 G for 10 min. Top layer of acetone was carefully removed from the tube with care not to disturb the plaque particles pellet. The samples were speed-vac for 10 min to ensure all acetone has been boiled away. The plaque particles pellet were reconstituted with 15 μl 8M Urea 100 mM Ammonium bicarbonate stock and 20 μl protease max solution. The protease max solution (Promega, Madison, Wis.) was prepared from stock by adding 60 μl 50 mM Ammonium bicarbonate and used for 3 solution digests (20 μl each). […] The tubes were incubated at 55° C. for 30 minutes. The tubes were then removed and brought to the room temperature followed by addition of 3.2 μl of 1M acrylamide and incubated at room temperature for 30 minutes. To the sample, 63 μL of 50 mM Ammonium bicarbonate was added for a final volume of 98 μl and 2 μl of trypsin (10 μg, Trypsin/Lys C Mix). After mixing the solution with pipet the samples were incubated at 37° C. overnight. After the overnight digest, the tryptic digest were quenched and acidified by adding 10 μl of 50% formic acid/water stock dilution. The samples were centrifuged at 10000 G for 2 minutes and purified using stage tip and used for MS/Mass analysis.\n(§2) All MS/MS samples were analyzed using Sequest (Thermo Fisher Scientific, San Jose, Calif., USA; version 1.0). Sequest was set up to search the SUMS_uniprot_Human database (35847 entries) assuming the digestion enzyme strict trypsin. Sequest was searched with a fragment ion mass tolerance of 1.00 Da and a parent ion tolerance of 20 PPM. Propionamide of cysteine was specified in Sequest as a fixed modification. Oxidation of methionine and phospho of serine, threonine and tyrosine were specified in Sequest as variable modifications."}, "[2]": {"molecular_target": "T1, Abeta-42 plaque particles (Homo sapiens, UniProt P05067)", "T1 construct": "Abeta 1-42", "description": "Next to isolate serum derived Abeta-42 plaque particles, the plasma or serum samples obtained from AD subjects were first centrifuged at 5,000 rpm for 5 min and the supernatants were transferred to new centrifuge tubes. Next, the supernatants were diluted in PBS to make 50% of the serum and plasma samples and used for incubation with Abeta-42 plaque oligomers/aggregates. Each assay was performed in 1 mL reaction (800 μL of 50% plasma or serum) and 200 μL (30 μg) of the Abeta-42 aggregates and the mixtures were incubated at 37° C. for 1 hr. To the mixture Thioflavin S dye (120 μg) was added and the sample was incubated for additional 30 min at 37° C. After the incubation, the mixture was directly used for sample acquisition using flow cytometer (FACS ARIA II, BD Biosciences, San Jose, Calif.). After initial detection of Abeta-42 plaque particles in the acquisition blot, gates were drawn in fluorescent dot blot to separately sort and isolate fluorescently labeled Abeta-42 particles.\nas §1, §2\nScaffold (version Scaffold_4.2.1, Proteome Software Inc., Portland, Oreg.) was used to validate MS/MS based peptide and protein identifications. […] Protein probabilities were assigned by the Protein Prophet algorithm (Nesvizhskii, Al et al 2003). […] Proteins sharing significant peptide evidence were grouped into clusters. Proteins were annotated with GO terms from NCBI (downloaded Jan. 17, 2014)."}, "[3]": {"tested_on": "High Density cholesterol (Chl Large) plaque particles", "set-up": "species or system human", "description": "(§3) The goal was to isolate plaque particles synthesized in the bio-fluids in a relatively pure form to enable their subsequent use for identification of components that contribute to the plaque formation. In order to isolate cholesterol plaque particles, the plasma or serum samples obtained from atherosclerotic subjects were first centrifuged at 5,000 rpm for 5 min and the supernatants were transferred to new centrifuge tubes. Next, the supernatants were diluted in PBS to make 50% of the serum and used for incubation with cholesterol oligomers/aggregates. Each assay was performed in 1 mL reaction (800 μL of 50% plasma or serum) and 200 μL (30 μg) of the Cholesterol aggregates and the mixtures were incubated at 37° C. for 1 hr After the incubation, the mixture was directly used for sample acquisition using flow cytometer (FACS ARIA II, BD Biosciences, San Jose, Calif.). […] In order to isolate these fractions, three sets of gates were drawn in the acquisition blot to separately sort and isolate High density or high complex cholesterol particles, Low density or low complex cholesterol particles and both High and low density cholesterol particles together.\nas §1, §2\n(§4) Scaffold (version Scaffold_4.2.1, Proteome Software Inc., Portland, Oreg.) was used to validate MS/MS based peptide and protein identifications. […] Protein probabilities were assigned by the Protein Prophet algorithm (Nesvizhskii, Al et al 2003)."}, "[4]": {"tested_on": "Low density cholesterol (Chl small) plaque particles", "set-up": "species or system human", "description": "as §3, §1, §2, §4"}, "[5]": {"molecular_target": "T2, alpha-synuclein plaque particles (Homo sapiens, UniProt P37840)", "T2 construct": "140 amino acids polypeptide", "description": "To prepare oligomers/aggregates of human alpha-synuclein (140 amino acids polypeptide), 1 mg of the recombinant alpha-synuclein protein was suspended in 1 mL of PBS and the sample was incubated at 37° C. for 2 hrs. After incubation, all the samples were centrifuged for 5 min. at 5000 rpm to remove precipitate, if any, and the supernatant containing oligomers/aggregates were used in vitro plaque particles formation assay. For detecting alpha-synuclein plaque particles Thioflavin S (Ex/Em=430 nm/550 nm) amyloid binding fluorescent dye (10 μg) was used.\nSimilarly, to isolate alpha-synuclein plaque particles, diluted plasma or serum samples obtained from AD subjects were used for incubation with alpha-synuclein plaque oligomers/aggregates. Each assay was performed in 1 mL reaction (800 μL of 50% plasma or serum) and 200 μL (30 μg) of the alpha-synuclein aggregates and the mixtures were incubated at 37° C. for 1 hr. To the mixture Thioflavin S dye (120 μg) was added and the sample was incubated for additional 30 min at 37° C. After the incubation, the mixture was directly used for sample acquisition using flow cytometer (FACS ARIA II, BD Biosciences, San Jose, Calif.). After initial detection of alpha-synuclein plaque particles, gates were drawn in the acquisition blot to separately sort and isolate fluorescently labeled alpha-synuclein particles.\nas §1, §2\nScaffold (version Scaffold_4.2.1, Proteome Software Inc., Portland, Oreg.) was used to validate MS/MS based peptide and protein identifications."}},
  "data": [
    {"molecule": "B1", "values": [
      {"measurement": "Semi-quantitative analysis of proteins binding to different plaque particles: Tau", "setting": "[1]", "value": 6},
      {"measurement": "Semi-quantitative analysis of proteins binding to different plaque particles: Abeta-42", "setting": "[2]", "value": 0},
      {"measurement": "Semi-quantitative analysis of proteins binding to different plaque particles: Chl Large", "setting": "[3]", "value": 3},
      {"measurement": "Semi-quantitative analysis of proteins binding to different plaque particles: Chl small", "setting": "[4]", "value": 1},
      {"measurement": "Semi-quantitative analysis of proteins binding to different plaque particles: Synuclein", "setting": "[5]", "value": 1}
    ]},
    {"molecule": "B2", "values": [
      {"measurement": "Semi-quantitative analysis of proteins binding to different plaque particles: Tau", "setting": "[1]", "value": 3},
      {"measurement": "Semi-quantitative analysis of proteins binding to different plaque particles: Abeta-42", "setting": "[2]", "value": 0},
      {"measurement": "Semi-quantitative analysis of proteins binding to different plaque particles: Chl Large", "setting": "[3]", "value": 4},
      {"measurement": "Semi-quantitative analysis of proteins binding to different plaque particles: Chl small", "setting": "[4]", "value": 3},
      {"measurement": "Semi-quantitative analysis of proteins binding to different plaque particles: Synuclein", "setting": "[5]", "value": 4}
    ]},
    {"molecule": "B3", "values": [
      {"measurement": "Semi-quantitative analysis of proteins binding to different plaque particles: Tau", "setting": "[1]", "value": 4},
      {"measurement": "Semi-quantitative analysis of proteins binding to different plaque particles: Abeta-42", "setting": "[2]", "value": 0},
      {"measurement": "Semi-quantitative analysis of proteins binding to different plaque particles: Chl Large", "setting": "[3]", "value": 2},
      {"measurement": "Semi-quantitative analysis of proteins binding to different plaque particles: Chl small", "setting": "[4]", "value": 4},
      {"measurement": "Semi-quantitative analysis of proteins binding to different plaque particles: Synuclein", "setting": "[5]", "value": 3}
    ]}
  ]
}
